This series relates to NaPi2b-negative EBC-1 cells. As to the kind of experiment: Bystander activity, EBC-1 mono-culture vs co-culture with HCC-78 (Examples 19 and 34). As to conditions: for bystander activity (in words): 5 nM test article; for bystander activity (in words) / Average EBC-1 % viability in co-culture / Average EBC-1 % viability in mono-culture: 4 days. Format: cell-based. On the procedure:
The ability of v29456 ADCs to exert a bystander killing effect on cancer cells was assessed according to the method described below. Bystander killing can occur after target-specific uptake of an ADC into an antigen-positive cell. In this case, catabolism of the ADC results in release of payload or an active catabolite, which then crosses the cell membrane of nearby cells to elicit their death.
Cell lines used were HCC-78 (high NaPi2b expression) and EBC-1 (negative NaPi2b expression).
(§1) NaPi2b-positive HCC-78 and NaPi2b-negative EBC-1 cells were seeded either as mono-cultures or co-cultures in a 48-well plate at 15,000 cells and 5,000 cells, respectively, in 100 μL assay media (RPMI1640+10% FBS). ADCs were diluted to 10 nM in assay media and 100 μL was added to the cell-containing plates (5 nM final ADC concentration). Cells were incubated with ADCs for 4 days under standard culturing conditions (37° C./5% CO2). […] After incubation, cells were washed in FACS buffer, resuspended in 70 μL FACS buffer per well, and 35 μL per well were analyzed on a BD LSRFortessa™ Cell Analyzer (BD Biosciences, Franklin Lake, NJ). Dead cells were excluded by gating on YO—PRO®-1 staining. The number of HCC-78 and EBC-1 cells were determined by the number of events in the Alexa Fluor®647 positive (NaPi2b-positive) and Alexa Fluor®647 negative (NaPi2b-negative) gates, respectively. Percent viability was calculated as the number of cells in treatment condition divided by the number of cells in the no-treatment condition.
Bystander effect was calculated by comparing the viability of NaPi2b-negative EBC-1 cells treated as mono-culture (black bars) with that of the cells treated as a co-culture with NaPi2b-positive HCC-78 cells (grey bars). A greater decrease in viability in co-culture compared with mono-culture indicated a greater bystander effect.
Bystander killing can occur after target-specific uptake of an ADC into an antigen-positive cell, as described in Example 19. Cell lines used were HCC-78 (high NaPi2b expression) and EBC-1 (negative NaPi2b expression). Surface NaPi2b expression for these cell lines were measured as described in Example 15.
[…] […] The human antibody variant v29456 conjugated to MC-GGFG-AM-DXd1 was included as a positive control.
as §1, with “Briefly, NaPi2b-positive HCC-78” for “NaPi2b-positive HCC-78”, “10 nM or 40 nM in assay” for “10 nM in assay”, “plates (5 nM or 20 nM final” for “plates (5 nM final”, “resuspended in 60 μL FACS” for “resuspended in 70 μL FACS”, “cells in each treatment condition” for “cells in treatment condition”
Bystander effect was calculated by comparing the viability of NaPi2b-negative EBC-1 cells treated as mono-culture (black bars) with that of the cells treated as a co-culture with NaPi2b-positive HCC-78 cells (grey bars). A greater decrease in viability in co-culture compared with mono-culture indicates a greater bystander effect.

“Also recorded” adds a separate entry of the source.

Consider “palivizumab MC-GGFG-AM-DXd1: "palivizumab (v22277) MC-GGFG-AM-DXd1", negative control”, for which the “bystander activity (in words)” value is given as “negative bystander activity; also recorded: negligible bystander activity”.

As to “palivizumab MCvcPABC-MMAE: "palivizumab (v22277) MCvcPABC-MMAE", negative control”, the “bystander activity (in words)” value is recorded as “negative bystander activity; also recorded: negligible bystander activity”.

For the substance “v22277-MCvcPABC-MMAE: negative (non-NaPi2b targeting) controls palivizumab (v22277) MC-GGFG-AM-DXd and palivizumab (v22277) MCvcPABC-MMAE”, the “Average EBC-1 % viability in co-culture” value (5 nM ADC, co-culture with NaPi2b-positive HCC-78, relative to untreated blank) is on record as 95.8%; the “Average EBC-1 % viability in co-culture” value (5 nM, Biological Replicate 1, co-culture with HCC-78, relative to untreated blank) was 81.7%; the “Average EBC-1 % viability in co-culture” value (20 nM, Biological Replicate 1, co-culture with HCC-78, relative to untreated blank) came to 84.1%. The “Average EBC-1 % viability in mono-culture” value stood at 86.4% (5 nM ADC, relative to untreated blank); 89.2% (5 nM, Biological Replicate 1, relative to untreated blank); 91.5% (20 nM, Biological Replicate 1, relative to untreated blank). Besides, the “% Bystander activity” value (5 nM ADC, viability in mono-culture compared with co-culture) is −9.4%; the “% Bystander activity” value (5 nM, Biological Replicate 1) was determined as 7.5%; the “% Bystander activity” value (20 nM, Biological Replicate 1) is reported as 7.4%.

Values taken from US20250235548A1, “ANTIBODY-DRUG CONJUGATES TARGETING NAPI2B AND METHODS OF USE” (Zymeworks BC Inc., priority 2022, published 2025).
